B1: p23 (natural protein, human)
chain: MQPASAKWYDRRDYVFIEFCVEDSKDVNVNFEKSKLTFSCLGGSDNFKHLNEIDLFHCIDPNDSKHKRTDRSILCCLRKGESGQSWPRLTKERAKLNWLSVDFNNWKDWEDDSDEDMSNFDRFSEMMNNMGGDEDVDLPEVDGADDDSQDSDDEKMPDLE
B2: MBP-tagged glucocorticoid receptor ligand-binding domain (MBP-GR LBD, F602S, 520-777) (domain or fragment, UniProt P04150 520-777, looked up)
chain: IVPATLPQLTPTLVSLLEVIEPEVLYAGYDSSVPDSTWRIMTTLNMLGGRQVIAAVKWAKAIPGFRNLHLDDQMTLLQYSWMSLMAFALGWRSYRQSSANLLCFAPDLIINEQRMTLPCMYDQCKHMLYVSSELHRLQVSYEEYLCMKTLLLLSSVPKDGLKSQELFDEIRMTYIKELGKAIVKREGNSSQNWQRFYQLTKLLDSMHEVVENLLNYCFQTFLDKTMSIEFPEMLAEIITNQIPKYSNGNIKKLLFHQK
B3: CHIP E3 ubiquitin ligase (enzyme, human, UniProt Q9UNE7 1-303, looked up)
chain: MKGKEEKEGGARLGAGGGSPEKSPSAQELKEQGNRLFVGRKYPEAAACYGRAITRNPLVAVYYTNRALCYLKMQQHEQALADCRRALELDGQSVKAHFFLGQCQLEMESYDEAIANLQRAYSLAKEQRLNFGDDIPSALRIAKKKRWNSIEERRIHQESELHSYLSRLIAAERERELEECQRNHEGDEDDSHVRAQQACIEAKHDKYMADMDELFSQVDEKRKKRDIPDYLCGKISFELMREPCITPSGITYDRKDIEEHLQRVGHFDPVTRSPLTQEQLIPNLAMKEVIDAFISENGWVEDY
B4: MBP-tagged glucocorticoid receptor DNA binding domain, hinge and ligand binding domain (MBP-GR DBD-LBD, 418-777, F602S) (domain or fragment, UniProt P04150 418-777, looked up)
chain: PKLCLVCSDEASGCHYGVLTCGSCKVFFKRAVEGQHNYLCAGRNDCIIDKIRRKNCPACRYRKCLQAGMNLEARKTKKKIKGIQQATTGVSQETSENPGNKTIVPATLPQLTPTLVSLLEVIEPEVLYAGYDSSVPDSTWRIMTTLNMLGGRQVIAAVKWAKAIPGFRNLHLDDQMTLLQYSWMSLMAFALGWRSYRQSSANLLCFAPDLIINEQRMTLPCMYDQCKHMLYVSSELHRLQVSYEEYLCMKTLLLLSSVPKDGLKSQELFDEIRMTYIKELGKAIVKREGNSSQNWQRFYQLTKLLDSMHEVVENLLNYCFQTFLDKTMSIEFPEMLAEIITNQIPKYSNGNIKKLLFHQK

Experiments:
[1] = molecular target: B2; assay: SEC
[2] = molecular target: T1, Hsp90a (wild-type Hsp90) (human, UniProt P07900 1-732); assay: cryo-EM structure
[3] = molecular target: T1, Hsp90a (wild-type Hsp90); assay: SEC
[4] = molecular target: D93N Hsp90 (human, UniProt P07900 1-732, D93N); assay: pull-down
[5] = molecular target: Hop (human, UniProt P31948 1-543); assay: pull-down

Row | Binder | binding result [1] | binding result [2] | binding result [3] | binding result [4] | binding result [5]
1 | B1 | binds | binds |  |  | 
2 | B2 |  |  | binds | binds | binds
3 | B3 |  | binds |  |  | 
4 | B4 |  | binds |  |  | 

Source: paper doi:10.1101/2025.05.28.656676 (bioRxiv, 2025)
